Measured values as given in publication PMC8390549.

Target: N-terminal DYKDDDK-tagged mouse Tim-3 (T-cell immunoglobulin mucin domain-3) with the VN-173 portion of the Venus fluorophore at the C terminus (Tim-3-VN) (UniProt Q8VIM0)
Assay: bimolecular fluorescence complementation (BiFC)
Settings: HeLa CD4+ cells, fixed 24 h after transfection; BiFC intensity normalized to Nef expression (HA staining); 3 independent repeats, 30 cells total; parent: est. 1.1; read off a plot

UniProt Q8VIM0, sequence (Q8VIM0 20-281): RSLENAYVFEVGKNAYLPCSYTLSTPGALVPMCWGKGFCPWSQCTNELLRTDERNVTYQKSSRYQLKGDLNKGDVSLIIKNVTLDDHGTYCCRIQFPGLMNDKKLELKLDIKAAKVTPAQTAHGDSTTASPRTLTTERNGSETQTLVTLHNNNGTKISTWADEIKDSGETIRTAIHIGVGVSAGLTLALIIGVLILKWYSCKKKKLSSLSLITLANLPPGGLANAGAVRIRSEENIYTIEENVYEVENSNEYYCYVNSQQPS

HIV-1 NL4-3 Nef fused to a C-terminal HA tag and the VC-155 portion of the Venus fluorophore (Nef-HA-VC) L164A; L165A
response: 0.42 BiFC/Nef IF
